From PMC8325321

Molecular target: recombinant importin α2-His (Laodelphax striatellus)
Assay: MST

## NP-GST (natural protein)
  Kd: 9.1 µM
